Experiment: label from the status in PepcDB records
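Note: failed if final PepcDB status was selected cloned or expressed and not failed if soluble or beyond.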

Sequence | protein production
MKYSEAQQGRVFVIRLEDGDIFHEEIERFAKEKGIERAYLNVVGGADKESKLVVGPEESRTYPVNPMEHELYDAHEIVGTGTLFPDDTSAPVVHLHMACGREENTVTGCVRNGVKVWHVMEVILVELLGTQARRLPDKATGFKLLVPLEHHHHHH | not failed
MAAAPWYIRQRDTDLLGKFKFIQNQEDGRLREATNGTVNSRWSLGVSIEPRNDARNRYVNIMPYERNRVHLKTLSGNDYINASYVKVNVPGQSIEPGYYIATQGPTRKTWDQFWQMCYHNCPLDNIVIVMVTPLVEYNREKCYQYWPRGGVDDTVRIASKWESPGGANDMTQFPSDLKIEFVNVHKVKDYYTVTDIKLTPTDPLVGPVKTVHHFYFDLWKDMNKPEEVVPIMELCAHSHSLNSRGNPIIVHCSAGVGRTGTFIALDHLMHDTLDFKNITERSRHSDRATEEYTRDLIEQIVLQLRSQRMKMVQTKDQFLFIYHAAKYLNSLSVNQ | failed
MKGKLQNIHPLGMTIIIGTLFARFATSMSIPFLAIYLTTVKGVSAGMTGAIIGTSALVGVFASFIGGNLSDRFGRKMIMLWSMIVWMFVFIGFSLADHVLSFFLLNALNGLCRSFFEPTSRALLSDLTKPEYRLLVYNLRYGAINVGVAIGPIVGLQIGSAKSTIPFLVAAGVYILYTAILAFQFKKYPMEKKKVSTEKPVTMLNAMRILRKDIVFLVALVGIILSNCGFSHLTTTVSQYFANAHIFQDGVKVFSYMLALNAIVVVVIQYPVIQICKKYTPLVSIMVGTLFVSGGLFGFGIIESTLGAAICTIIFTIGEVLMFSMTDVFIDDIAVAHLKGTYFGAMGFSGIGAVIGPWFGGVLLDYYGYQNGFVVFSALAIFSTVAFPVLLVTKSLLKKRYDGNSNIELHAK | failed
MNVMRHSWLAVAGIAGLLAFPPVDACTLWGAAGTASMEGSLLAKNRDWKPDHAQSLRLLHPEHGYAYLGLYADNGSEPGIKAGVNQKGLAVVAAEASSLPRALRADSARHGVLTRLLRDYGSLDEVASAADKLFAQARPVFLLLADAGGLMQVEIGQHGRYRLIRQQSGTLAHTNHYADTSLLDGAQTIGPSSQARLERIRFLLDQHPAHTLSEFERLSRDRHDGPDNSLWRSGREHTLAGWRIALPAGAPPRLQLTLANPGRAERDGDYALDSAFWAQPARTLLPLEHHHHHH | not failed
MSLDSRKPGHRPVTMRDVAKAAGVSRMTVSRALKKDSPISSETRERILKVVKDMNYVPDQVAGSLTTKRSGFVGLLLPSLNNLHFAQTAQSLTDVLEQGGLQLLLGYTAYSPEREEQLVETMLRRRPEAMVLSYDGHTEQTIRLLQRASIPIVEIWEKPAHPIGHTVGFSNERAAYDMTNALLARGFRKIVFLGEKDDDWTRGAARRAGFKRAMREAGLNPDQEIRLGAPPLSIEDGVAAAELILQEYPDTDCIFCVSDMPAFGLLSRLKSIGVAVPEQVSVVGFGNFEVSRFASPEISTVRVDPIAIGRETGSLILRLLDPKQRSPQTAQHITLPPVLEFRPSLKNEGHHHHHH | not failed
MRAVIPYKKAGAKSRLSPVLSLQEREEFVELMLNQVISSLKGAGIEQVDILSPSVYGLEEMTEARVLLDEKDLNEALNRYLKEAEEPVLIVMADLPLLSPEHIKEISSTEKDVCIVPGKGGGTNALFIKNPSKYRVKYYGSSFLTHCSIATDSGQDFEIYDSFMAGTDIDEPEDLVELLIHGKGAAKDYIESKFRLEVKKG | failed
MRAMVSRLNSAVSRLFLFAFVAVMPTLVQAQSVNEGQSVRALTTDSSGALLVLRQSGLFALDSQNTTEIPLPPSDSGAQPRSMAKGGDESLYLAGPGLGIWRYDEASKRWQSLNDTLPDLGVTAIAAHATQPDTLYAYLGDGGMFRSRDDGAEWVKVDNGPREPVQAFLHSDMPGSMESGWLFAGTTRGVARSMDCFCFWGDAGELRGTVSAIDYDPWAPENVYAVIEGELHRSSDGGETWAGLEIPQAVTALTFSPTERLVVGTENGELLSQNASGEWVPVYE | failed
MIWNIDYFCNLRCKSCNAWQGKIFFPEDQIDKHLQEMKNNGIKIVSVTGGEPTLNKNVVDIIRKLKENHFFTHIATNGTNPYVLRKLYPYLDAVTISLDSNIPEEHNAYRGLKIFDTVVSNIKEAKSKVKIVTANMLVTNF | failed
MTLSSTTAPLDQPIPQATADAFCALTGDDQWIHIDPARAEAEGLAGGDTVLPGALLLSLAVGGLGKALGYPEGTRSWQRSYERVRFLRPAPVGSRLRLEARESRRRPAGTGREVVVANVSLYSDLVEAGPVMEGCFTSLLEVAVQPDTAE | failed
MSDLVSYHLDDGVATLTLNNGKVNAISPDVIIAFNAALDQAEKDRAIVIVTGQPGILSGGYDLKVMTSSAEAAINLVAQGSTLARRMLSHPFPIIVACPGHAVAKGAFLLLSADYRIGVAGPFSIGLNEVQIGMTMHHAGIELARDRLRKSAFNRSVINAEMFDPEGAMAAGFLDKVVSVEELQGAALAVAAQLKKINMNAHKKTKLKVRKGLLDTLDAAIEQDRQHML | not failed
MEKAVHSSTTSGPAVPGETTKTGTSIIDTAASAVQSFAPVNQIHQHLCAFHFYADDMARQVEAHHFCSHVNEEMRQCLIYDGPDANARLIGLEYIVSEKLFMTLPDEEKKLWHSHEWEVKGGFLFMPGVPGAIQRKDLDKVAKTYGKVFHFWQVDLGHELPIGLPNVMMAVTRDGQLFHEMIQEAEKRFGVSVEGERDSRAYMSGPELGIHPLANGGGKGMKLELREVDIKPVESVGSVFV | failed
MLMQYRDLAKNIIKIYQKHGRDWTQLRGDFLHEKIWLDRFLGLLPMSAKVLDLGCGSGTPIAKYLIEQGCQLTGVDTSEVMLDMAQQNFPEQIWINADIRQFSTEQTFDGILAWDSFFHLDPENQRQMFAQFSTHAASGGVLMFTSGPSYGEAIGDMFGGPLYHASLDAAEYRTLLAQYGFETIKMIAEDPECTGHTVWLARKK | failed
MNLGAAEEESAQEIHLPADINWEMLDKSKFFVLGAALFSGVSGALYPAVLMKTRQQVCHSQGSCIKTAFTLVRHEGLRGLYRGFGTSLMGTIPARALYMTALEVTKSNVGSAAVSLGLTEAKAAAVANAVGGLSAAMAAQLVWTPVDVVSQRLMVQGSAGLVNASRCNYVNGFDAFRKIVRADGPKGLYRGFGISILTYAPSNAVWWASYSVAQRMVWGGIGCYVCKKDEESGNNSTTMKPDSKTIMAVQGVSAAIAGSVSALITMPLDTIKTRLQVLDGEDSSNNGKRGPSIGQTVRNLVREGGWTACYRGLGPRCASMSMSATTMITTYEFLKRLSAKNHDGFYSKS | failed
MADWLIGIIMGAVEGLTEFLPVSSTGHMILTGHLLGFDDERAKVFEVVIQLGSILAVVVIFWKRLWSLVGIGKVTDGPSLNLLHIIIGMIPAGVLGVLFHSAIKEVLFGPGPVVISLVAGGILMIVAEKFSKPSTARTLDEITYKQAFTIGMFQCLALWPGFSRSGSTISGGLLARVSHTAAAEYTFILAVPMMVAASGLDLIKSWDILSAADIPLFATGFITAFVVAMLAIVSFLKLLSRVKLTPFAYYRFILAAVFYFFIM | failed
MVNEYKAHSSFILKVVITLIGYWIASILAIIIYSMFFKIETNTFLLCLLLPTPIIWFNILIGMGLTYRCMENLTIYDKHKLWCVFVRDLTLTILATILATLTTMELYQIEHPLKPIEFVFIVGLVLIVGFTIITTLIIKYLKIIKNLKKISKN | failed
IQRSIERALDFRKEVQRLREESDGWFFDIWQPEAVDKAECWPVAPGEDWHGFKDADADHMYLDPVKVTILTPGMDEQGNMDEEGIPAALVAKFLDERGVVVEKTGPYNLLFLFSIGIDKTRAMGLLRGLTEFKRAYDLNLRVKNMLPDLYAEDPDFYRNMRIQDLAQGIH | failed
MSASHFLTIIKPASLAVLLLLAAGFWVLHGFIMPIAWAVVLAFTVWPWYEHVYQRAPCWMRGGWLPLAMTLLMMVLLMVPATFGVLVLGHEVQMLHRLLIKVQSSGIGAPDWLIQLPWVGGWIKETWSETFGNPETIKNALNALGMGTVFSYTRDLAAQVLHRFMSGFVTLLALFFIFRDGHGLGRQILDRSVRLFGSAGARYARHAVTAVRGTVNGMLLVGIGKGVVLGLGYWAVGLSQPVLLGTLTAVVALVPFAAKLVFGAASIYLIVQGHAMAGIVLVVYGFIITLIADNYVRPTLIGGAANIPFLPTLLGIFGGVEAMGFVGLFIGPTVMAILISLWRDWNDETRLPSA | failed
MKVALGGTFEPLHEGHKKLIDVAIKLGGRDITIGVTSDRMARARIRSVLPFAIRAENVKRYVMRKYGFEPEIVKITNPYGKTLDVDFEYLVVSPETYEMALKINQKREELGKRKITIVKVDWMMAEDGKPISSTRIKRGEID | not failed

Source: a protein production outcome set (Wang et al. 2014)
